Here are results for one molecule from article PMC2691479, “SNX4 in Complex with Clathrin and Dynein: Implications for Endosome Movement” (PLoS ONE, 2009).

The target in the test is T1, Sorting nexin 4 (SNX4), endogenous (human (endogenous in HEK293), UniProt O95219 1-450).
T1 construct: SNX4, endogenous in HEK293 cells, precipitated with anti-SNX4 (E-18); source: endogenous, HEK293 lysate
T1 sequence (looked up): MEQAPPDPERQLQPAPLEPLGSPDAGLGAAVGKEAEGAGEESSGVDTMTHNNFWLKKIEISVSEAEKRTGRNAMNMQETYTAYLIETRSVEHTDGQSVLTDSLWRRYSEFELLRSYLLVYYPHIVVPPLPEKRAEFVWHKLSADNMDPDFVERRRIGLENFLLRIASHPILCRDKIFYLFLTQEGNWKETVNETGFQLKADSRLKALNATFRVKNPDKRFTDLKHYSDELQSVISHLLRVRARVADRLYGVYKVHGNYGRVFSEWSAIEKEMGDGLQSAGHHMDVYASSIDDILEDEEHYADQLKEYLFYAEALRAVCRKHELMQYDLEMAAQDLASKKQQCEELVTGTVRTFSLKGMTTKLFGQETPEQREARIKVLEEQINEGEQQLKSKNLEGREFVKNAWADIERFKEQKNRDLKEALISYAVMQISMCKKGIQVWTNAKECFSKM
As to the kind of experiment: co-IP; anti-SNX4 (E-18) on Protein A Sepharose, HEK293 lysate (0.1 M NaCl, 10 mM Na2HPO4 pH 7.4, 1 mM EDTA, 1% Triton X-100), overnight at 4°C, Western blot; cells untreated, or transfected with control, SNX4 or CHC siRNA, or treated with nocodazole for 30 min. The following applies: partners not purified.

B1: clathrin heavy chain (CHC), endogenous (natural protein, human (endogenous in HEK293), UniProt Q00610 1-1675, looked up)
chain: MAQILPIRFQEHLQLQNLGINPANIGFSTLTMESDKFICIREKVGEQAQVVIIDMNDPSNPIRRPISADSAIMNPASKVIALKAGKTLQIFNIEMKSKMKAHTMTDDVTFWKWISLNTVALVTDNAVYHWSMEGESQPVKMFDRHSSLAGCQIINYRTDAKQKWLLLTGISAQQNRVVGAMQLYSVDRKVSQPIEGHAASFAQFKMEGNAEESTLFCFAVRGQAGGKLHIIEVGTPPTGNQPFPKKAVDVFFPPEAQNDFPVAMQISEKHDVVFLITKYGYIHLYDLETGTCIYMNRISGETIFVTAPHEATAGIIGVNRKGQVLSVCVEEENIIPYITNVLQNPDLALRMAVRNNLAGAEELFARKFNALFAQGNYSEAAKVAANAPKGILRTPDTIRRFQSVPAQPGQTSPLLQYFGILLDQGQLNKYESLELCRPVLQQGRKQLLEKWLKEDKLECSEELGDLVKSVDPTLALSVYLRANVPNKVIQCFAETGQVQKIVLYAKKVGYTPDWIFLLRNVMRISPDQGQQFAQMLVQDEEPLADITQIVDVFMEYNLIQQCTAFLLDALKNNRPSEGPLQTRLLEMNLMHAPQVADAILGNQMFTHYDRAHIAQLCEKAGLLQRALEHFTDLYDIKRAVVHTHLLNPEWLVNYFGSLSVEDSLECLRAMLSANIRQNLQICVQVASKYHEQLSTQSLIELFESFKSFEGLFYFLGSIVNFSQDPDVHFKYIQAACKTGQIKEVERICRESNCYDPERVKNFLKEAKLTDQLPLIIVCDRFDFVHDLVLYLYRNNLQKYIEIYVQKVNPSRLPVVIGGLLDVDCSEDVIKNLILVVRGQFSTDELVAEVEKRNRLKLLLPWLEARIHEGCEEPATHNALAKIYIDSNNNPERFLRENPYYDSRVVGKYCEKRDPHLACVAYERGQCDLELINVCNENSLFKSLSRYLVRRKDPELWGSVLLESNPYRRPLIDQVVQTALSETQDPEEVSVTVKAFMTADLPNELIELLEKIVLDNSVFSEHRNLQNLLILTAIKADRTRVMEYINRLDNYDAPDIANIAISNELFEEAFAIFRKFDVNTSAVQVLIEHIGNLDRAYEFAERCNEPAVWSQLAKAQLQKGMVKEAIDSYIKADDPSSYMEVVQAANTSGNWEELVKYLQMARKKARESYVETELIFALAKTNRLAELEEFINGPNNAHIQQVGDRCYDEKMYDAAKLLYNNVSNFGRLASTLVHLGEYQAAVDGARKANSTRTWKEVCFACVDGKEFRLAQMCGLHIVVHADELEELINYYQDRGYFEELITMLEAALGLERAHMGMFTELAILYSKFKPQKMREHLELFWSRVNIPKVLRAAEQAHLWAELVFLYDKYEEYDNAIITMMNHPTDAWKEGQFKDIITKVANVELYYRAIQFYLEFKPLLLNDLLMVLSPRLDHTRAVNYFSKVKQLPLVKPYLRSVQNHNNKSVNESLNNLFITEEDYQALRTSIDAYDNFDNISLAQRLEKHELIEFRRIAAYLFKGNNRWKQSVELCKKDSLYKDAMQYASESKDTELAEELLQWFLQEEKRECFGACLFTCYDLLRPDVVLETAWRHNIMDFAMPYFIQVMKEYLTKVDKLDASESLRKEEEQATETQPIVYGQPQLMLTAGPSVAVPPQAPFGYGYTAPPYGQPQPGFGYSM
notes: clathrin heavy chain, endogenous in HEK293 cells, detected with anti-CHC; source: endogenous, HEK293 lysate
As to B1, the “fold change of CHC binding to SNX4, nocodazole-treated against untreated cells” value worked out at 2.3 fold.
